From paper PMC6774866 (Molecular immunology, 2019)
Where no end group is shown, it is not given here.

Columns and labels:
[1] = target: T1, Arl3 sortagged with the UBC6e(168-186) tag (Mus musculus (UBC6e tag), UniProt Q9JJZ4, chimera, also: sortagged to Arl3); assay: pull-down
T1 chain: GSSQADQEAKELARQISFK-NH2

[2] = target: T2, eGFP-UBC6e(168-186) (Mus musculus (printed stretch matches …, UniProt Q9JJZ4, chimera, also: joined to eGFP)); assay: pull-down
T2 chain: GSSQADQEAKELARQISFK-NH2

[3] = target: UBC6e(1-197), randomly biotinylated with biotin-NHS (Mus musculus, UniProt Q9JJZ4, biotin on exposed Lys residues (random, biotin-N-hydroxysuccinimide ester)); assay: BLI
Sequence of UBC6e(1-197), randomly biotinylated with biotin-NHS (Q9JJZ4 1-197): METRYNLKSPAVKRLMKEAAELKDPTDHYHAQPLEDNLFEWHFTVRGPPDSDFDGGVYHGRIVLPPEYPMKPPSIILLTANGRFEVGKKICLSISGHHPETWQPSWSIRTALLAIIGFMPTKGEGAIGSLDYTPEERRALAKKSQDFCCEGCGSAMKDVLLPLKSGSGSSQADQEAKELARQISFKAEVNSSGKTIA

[4] = target: UBC6e(1-197)-LPETGGG-biotin (Mus musculus, UniProt Q9JJZ4, biotin at the C-terminus (LPETGGG-biotin, by sortagging)); assay: BLI
Sequence of UBC6e(1-197)-LPETGGG-biotin (Q9JJZ4 1-197): as above

[5] = target: T3, Biotinylated 14-residue UBC6e peptide (Mus musculus (identical in human), UniProt Q9JJZ4, also: biotin, position not given here); assay: BLI
T3 chain: QADQEAKELARQIS-NH2

B1: VHH05 (VHH)
VHH: QVQLQESGGGLVQPGGSLRLSCAASGFVFENSAMAWYRQAPGKERELIAVIGTTFIKLAESVKGRFTISRDNAKSTVYLQMNNLKPEDTAVYYCSKSGAYWGQGTQVTVSS
binding result [1]: binds | binding result [2]: binds | Kd [3]: 14 nM | Kd [4]: 16 nM | Kd [5]: ~0.15 nM
